These results are taken from patent US20020123091.

The test system of this data set is PRO256 polypeptide.
PRO256 polypeptide, sequence (chain, as listed by the source): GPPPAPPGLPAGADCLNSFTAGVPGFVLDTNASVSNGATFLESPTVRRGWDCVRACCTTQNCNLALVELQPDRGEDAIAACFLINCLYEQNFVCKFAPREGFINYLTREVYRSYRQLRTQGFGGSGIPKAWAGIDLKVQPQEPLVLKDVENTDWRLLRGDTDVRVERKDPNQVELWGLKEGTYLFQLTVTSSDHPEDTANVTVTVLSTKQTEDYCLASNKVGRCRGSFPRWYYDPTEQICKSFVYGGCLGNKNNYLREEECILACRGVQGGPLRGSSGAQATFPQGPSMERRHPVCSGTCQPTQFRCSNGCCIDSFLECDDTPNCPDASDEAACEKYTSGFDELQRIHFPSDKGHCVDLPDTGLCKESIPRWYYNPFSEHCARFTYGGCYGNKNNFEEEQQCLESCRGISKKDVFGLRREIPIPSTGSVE

human kallikrein (Haematologic Technologies), sequence (chain, as listed by the source): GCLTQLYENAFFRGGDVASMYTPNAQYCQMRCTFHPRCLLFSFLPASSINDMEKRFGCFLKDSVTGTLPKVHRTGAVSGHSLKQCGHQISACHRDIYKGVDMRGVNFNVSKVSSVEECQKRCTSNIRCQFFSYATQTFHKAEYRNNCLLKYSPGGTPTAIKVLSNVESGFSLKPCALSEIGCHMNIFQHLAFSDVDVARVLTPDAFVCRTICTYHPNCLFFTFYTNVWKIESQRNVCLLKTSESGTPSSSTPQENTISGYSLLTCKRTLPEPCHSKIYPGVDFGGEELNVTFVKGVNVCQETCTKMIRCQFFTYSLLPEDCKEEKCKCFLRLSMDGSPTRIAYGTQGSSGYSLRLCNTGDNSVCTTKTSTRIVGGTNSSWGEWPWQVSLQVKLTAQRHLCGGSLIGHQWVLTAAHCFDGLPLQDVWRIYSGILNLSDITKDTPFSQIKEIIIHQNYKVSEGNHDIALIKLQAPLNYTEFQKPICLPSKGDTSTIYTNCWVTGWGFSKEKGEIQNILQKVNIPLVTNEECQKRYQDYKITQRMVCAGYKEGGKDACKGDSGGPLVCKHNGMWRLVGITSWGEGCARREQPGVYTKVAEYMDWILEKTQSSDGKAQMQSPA

As to “human kallikrein (Haematologic Technologies)”, the “kallikrein (40 nM) conversion of ^125I-scHGF into its two chain form, SDS-PAGE/autoradiography, PRO256 at 1 µM” value is “In the presence of PRO256, kallikrein conversion of ^125I-scHGF into its two chain form is inhibited over the 4 hour incubation period compared with the control”.
